Source: patent US20210380679A1 (INHIBRX BIOSCIENCES, published 2021)

What was measured:
[1] = target: T1, human DLL3 (Delta-like ligand 3) (human, UniProt Q9NYJ7 27-618); assay: flow cytometry, sdAb-Fc titrated on SHP-77 cells (DLL3 positive), APC anti-human Fc secondary
T1 construct: endogenous on SHP-77 cells; also called cell-surface DLL3
T1 sequence: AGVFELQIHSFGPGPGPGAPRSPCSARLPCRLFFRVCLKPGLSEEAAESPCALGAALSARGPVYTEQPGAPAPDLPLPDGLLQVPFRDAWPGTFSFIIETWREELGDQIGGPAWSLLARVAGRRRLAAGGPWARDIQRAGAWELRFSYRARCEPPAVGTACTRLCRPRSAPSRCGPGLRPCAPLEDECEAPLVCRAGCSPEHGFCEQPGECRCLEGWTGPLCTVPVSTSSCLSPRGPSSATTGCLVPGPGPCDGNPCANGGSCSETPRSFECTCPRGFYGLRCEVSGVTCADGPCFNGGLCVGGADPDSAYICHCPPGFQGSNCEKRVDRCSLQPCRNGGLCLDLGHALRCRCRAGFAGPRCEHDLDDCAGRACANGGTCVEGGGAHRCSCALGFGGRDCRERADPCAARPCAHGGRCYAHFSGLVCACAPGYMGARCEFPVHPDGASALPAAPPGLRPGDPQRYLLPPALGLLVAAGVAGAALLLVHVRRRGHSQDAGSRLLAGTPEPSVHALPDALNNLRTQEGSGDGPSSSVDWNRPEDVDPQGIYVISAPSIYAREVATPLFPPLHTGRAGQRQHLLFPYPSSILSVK
Experimental: Specificity and relative affinity were assessed for purified sdAb-Fcs on DLL3-expressing cells. […] A titration series of the fusion protein was incubated with the DLL3-expressing cell lines (approximately 2.5×10⁴ to 5×10⁴ cells/well) for 30 minutes at 4 degrees Celsius in FACS Buffer (PBS 1% BSA, 0.1% NaN₃ pH 7.4) in 96-well plates. Following three wash steps in FACS buffer, an APC-conjugated anti-human Fcγ specific secondary antibody (Jackson ImmunoResearch) was added and incubated for 30 minutes at 4 degrees Celsius. Following three additional wash steps in FACS buffer bound antibody was detected via flow cytometry (IQue Intellicyte).

[2] = target: T1, human DLL3 (Delta-like ligand 3); assay: flow cytometry, SHP-77 cells
Experimental: (§1) Binding of exemplary DLL3-targeting constrained CD3 engaging constructs of the disclosure, referred to herein as cx4720, cx3715, cx4422, cx3708, cx4052, cx3985, cx4059, cx4087, cx4088, cx4895, cx3991, cx3711, cx4887, cx4896, cx4899, cx4406, cx3707, cx3710, cx4888 and cx4890, to CD3 on the surface of primary T cells was assessed via flow cytometry (SONY SA3800 spectral analyzer) using T-cell that were negatively enriched from PBMCs isolated from healthy human donor leukopaks. Representative DLL3-targeting constrained CD3 engaging constructs were assessed for binding to T cells and DLL3 expressing cells (SHP-77). Bound cx4720, cx3715, cx4422, cx3708, cx4052, cx3985, cx4059, cx4087, cx4088, cx4895, cx3991, cx3711, cx4887, cx4896, cx4899, cx4406, cx3707, cx3710, cx4888 and cx4890 was detected with fluorophore-conjugated secondary antibodies specific for the human Fc and binding was measured by flow cytometry. Cells incubated with secondary antibody only served as negative controls.
(§2) Table E4 summarizes the affinity of exemplary molecules for DLL3 or CD3, as determined from flow cytometry, in these studies.

[3] = target: T2, CD3 on the surface of T cells (human, UniProt P07766 23-207); assay: flow cytometry, primary human T cells
T2 construct: whole, on cells; multi-chain complex; also called CD3 epsilon
T2 sequence (P07766 23-207): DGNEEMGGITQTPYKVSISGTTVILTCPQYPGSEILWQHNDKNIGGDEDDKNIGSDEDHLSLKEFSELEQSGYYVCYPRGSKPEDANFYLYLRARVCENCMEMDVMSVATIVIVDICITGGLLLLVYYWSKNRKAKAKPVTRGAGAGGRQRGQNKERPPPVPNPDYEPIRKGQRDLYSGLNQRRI
Experimental: as §1, §2

B1: L10D9 (Fc fusion)
VHH: EVQLVQSGGGLVQAGGSLRLSCAASGSILSINAMGWYRQPPGKQREMVAGFTGDGNTIYADSVKGRFTISRDNAKNTVYLQMNSLKPEDTAVYYCAADVQLFSRDYEFYWGQGTQVTVKP
notes: tested as VHH-human Fc
Does B1 bind [1]?
Result: binds

B2: 3B4 (Fc fusion)
VHH: QVQLQQSGGGLVQAGGSLRLSCAASGSDFSINAMGWYRQGELVAGFTGDGNPIYADSVKGRFTISRGNAENTVSLQMNSLKPEDTAVYYCAADVKIGGDYEWYWGQGTQVTVKP
notes: tested as VHH-human Fc; Fc not specified
With B2 as the binder, how does the “EC50 (read off the curve)” value [1] read?
The value was about 0.06 nM.

B3: 3B12 (Fc fusion)
VHH: QVQLQESGGGLVQSGGSLRLSCAASGFSLDDYTIGWFRQAPGKEREGVSCISSSGGSTYYADSVKGRFTISRDNAENTVYLQMNSLKPEDTAVYYCATYCPVTIADELGFDYWGQGTLVTVKP
notes: as for B2
Does B3 bind [1]?
Result: binds

B4: 6B4 (Fc fusion)
VHH: QVTLRESGGGLVQAGGSLRLSCGASEITLSDKTVGWYRQAPGKQRVLVAVISNVDSTNYAHSVKGRFTISRDNAKNTVYLQMNSLKPEDTAVYYCYARDFEAEYWGQGTLVTVKP
notes: as for B2
Does B4 bind [1]?
Result: binds

B5: cx4896 (bispecific antibody)
chain 1: EVQLVESGGGEVQPGGSLRLSCAASGSIFSINAMGWYRQAPGKQRELVAGFTGDTNTIYAESVKGRFTISRDNAKNTVYLQMSSLRAEDTAVYYCAADVQLFSRDYEFYWGQGTLVTVKPDKTHTCPPCPAPGGPSVFLFPPKPKDTLMISRTPEVTCVVVDVSHEDPEVKFNWYVDGVEVHNAKTKPREEQYNSTYRVVSVLTVLHQDWLNGKEYKCKVSNKALPAPIEKTISKAKGQPREPQVYTLPPCRDELTKNQVSLWCLVKGFYPSDIAVEWESNGQPENNYKTTPPVLDSDGSFFLYSKLTVDKSRWQQGNVFSCSVMHEALHNHYTQKSLSLSPTGGGGGSGGGGGSGGGGGSEVQLVESGGGLVQPGGSLRLSCAASGFTFNTYAMNWVRQAPGKCLEWVARIRSKYNNYATYYADSVKGRFTISRDDAKNTLYLQMSSLRAEDTAVYYCVRHGNFGNSYVSWFAYWGQGTLVTVKPEVQLVESGGGEVQPGGSLRLSCGPSEIITSDKSVGWWRQAPGKQRNLVAGISNVGSTNYAQSVKGRFTISRDNAKNTLYLQMSSLRAEDTAVYYCYARDFENEYWGQGTLVTVKP
chain 2: DKTHTCPPCPAPGGPSVFLFPPKPKDTLMISRTPEVTCVVVDVSHEDPEVKFNWYVDGVEVHNAKTKPREEQYNSTYRVVSVLTVLHQDWLNGKEYKCKVSNKALPAPIEKTISKAKGQPREPQVCTLPPSRDELTKNQVSLSCAVKGFYPSDIAVEWESNGQPENNYKTTPPVLDSDGSFFLVSKLTVDKSRWQQGNVFSCSVMHEALHNRYTQKSLSLSPTGGGGGSGGGGGSGGGGGSQAVVTQEPSLTVSPGGTVTLTCGSSTGAVTTSNYANWVQQKPGQAFRGLIGGTNKRAPGVPARFSGSLLGGKAALTISGAQPEDEADYYCALWYSNHWVFGCGTKLEIKEVQLLESGGGEVQPGGSLRLSCAASGFSFSINAMGWYRQAPGKRREFVAAIESGRNTVYAESVKGRFTISRDNAKNTVYLQMSSLRAEDTAVYYCGLLKGNRVVSPSVAYWGQGTLVTVKP
notes: also carries a 41BB sdAb
How did the Kd [2] turn out when B5 was run?
The Kd was 0.339 nM.

And the Kd [3]?
The Kd was over 200 nM.

B6: cx4888 (bispecific antibody)
chain 1: EVQLVESGGGEVQPGGSLRLSCAASGSIFSINAMGWYRQAPGKQRELVAGFTGDTNTIYAESVKGRFTISRDNAKNTVYLQMSSLRAEDTAVYYCAADVQLFSRDYEFYWGQGTLVTVKPDKTHTCPPCPAPGGPSVFLFPPKPKDTLMISRTPEVTCVVVDVSHEDPEVKFNWYVDGVEVHNAKTKPREEQYNSTYRVVSVLTVLHQDWLNGKEYKCKVSNKALPAPIEKTISKAKGQPREPQVYTLPPCRDELTKNQVSLWCLVKGFYPSDIAVEWESNGQPENNYKTTPPVLDSDGSFFLYSKLTVDKSRWQQGNVFSCSVMHEALHNHYTQKSLSLSPTGGGGGSGGGGGSGGGGGSEVQLVESGGGLVQPGGSLRLSCAASGFTFNTYAMNWVRQAPGKCLEWVARIRSKYNNYATYYADSVKGRFTISRDDAKNTLYLQMSSLRAEDTAVYYCVRHGNFGNSYVSWFAYWGQGTLVTVKPEVQLVESGGGEVQPGGSLRLSCAASEIITSDKSVGWWRQAPGKQRNLVAGISNVGSTNYAQSVKGRFTISRDNAKNTLFLQMSSLRAEDTAVYYCYARDFENEYWGQGTLVTVKP
chain 2: DKTHTCPPCPAPGGPSVFLFPPKPKDTLMISRTPEVTCVVVDVSHEDPEVKFNWYVDGVEVHNAKTKPREEQYNSTYRVVSVLTVLHQDWLNGKEYKCKVSNKALPAPIEKTISKAKGQPREPQVCTLPPSRDELTKNQVSLSCAVKGFYPSDIAVEWESNGQPENNYKTTPPVLDSDGSFFLVSKLTVDKSRWQQGNVFSCSVMHEALHNRYTQKSLSLSPTGGGGGSGGGGGSGGGGGSQAVVTQEPSLTVSPGGTVTLTCGSSTGAVTTSNYANWVQQKPGQAFRGLIGGTNKRAPGVPARFSGSLLGGKAALTISGAQPEDEADYYCALWYSNHWVFGCGTKLEIKEVQLLESGGGEVQPGGSLRLSCAASGFSFSINAMGWYRQAPGKRREFVAAIESGRNTVYAESVKGRFTISRDNAKNTVYLQMSSLRAEDTAVYYCGLLKGNRVVSPSVAYWGQGTLVTVKP
notes: also carries a 41BB sdAb
Which Kd [2] does the source give for B6 here?
The Kd was 0.134 nM.

What about the Kd [3] of the same binder?
Its Kd is over 200 nM.

B7: L8E7 (Fc fusion)
VHH: EVQLQESGGGLVQAGGSLRLSCGPSEIITSDKSVGWWRQAPGKQRNLVAGISNVGSTNYAQSVKGRFTISRDNAKNTLFLQMNSLKPEDTAVYYCYARDFENEYWGRGTQVTVKP
notes: as for B2
Does B7 bind [1]?
Result: binds

B8: L6F1 (Fc fusion)
VHH: QVQLVQSGGGLVQAGGSLRLSCGASEIIFSDKTVGWYRQAPGKQRVLVAVISNVDSTNYAQSVKGRFTISRDNAKNTVYLQMNSLKPEDTAVYYCYARDFESEYWGRGTQVTVKP
notes: as for B2
Does B8 bind [1]?
Result: binds

B9: cx4720 (bispecific antibody)
chain 1: EVQLVQSGGGLVQAGGSLRLSCAASGSILSINAMGWYRQPPGKQREMVAGFTGDGNTIYADSVKGRFTISRDNAKNTVYLQMNSLKPEDTAVYYCAADVQLFSRDYEFYWGQGTQVTVKPDKTHTCPPCPAPGGPSVFLFPPKPKDTLMISRTPEVTCVVVDVSHEDPEVKFNWYVDGVEVHNAKTKPREEQYNSTYRVVSVLTVLHQDWLNGKEYKCKVSNKALPAPIEKTISKAKGQPREPQVYTLPPCRDELTKNQVSLWCLVKGFYPSDIAVEWESNGQPENNYKTTPPVLDSDGSFFLYSKLTVDKSRWQQGNVFSCSVMHEALHNHYTQKSLSLSPTGGGGGSGGGGGSGGGGGSEVQLVESGGGLVQPGGSLRLSCAASGFTFNTYAMNWVRQAPGKCLEWVARIRSKYNNYATYYADSVKGRFTISRDDAKNTLYLQMSSLRAEDTAVYYCVRHGNFGNSYVSWFAYWGQGTLVTVKPEVQLQESGGGLVQAGGSLRLSCGPSEIITSDKSVGWWRQAPGKQRNLVAGISNVGSTNYAQSVKGRFTISRDNAKNTLFLQMNSLKPEDTAVYYCYARDFENEYWGRGTQVTVKP
chain 2: DKTHTCPPCPAPGGPSVFLFPPKPKDTLMISRTPEVTCVVVDVSHEDPEVKFNWYVDGVEVHNAKTKPREEQYNSTYRVVSVLTVLHQDWLNGKEYKCKVSNKALPAPIEKTISKAKGQPREPQVCTLPPSRDELTKNQVSLSCAVKGFYPSDIAVEWESNGQPENNYKTTPPVLDSDGSFFLVSKLTVDKSRWQQGNVFSCSVMHEALHNRYTQKSLSLSPTGGGGGSGGGGGSGGGGGSQAVVTQEPSLTVSPGGTVTLTCGSSTGAVTTSNYANWVQQKPGQAFRGLIGGTNKRAPGVPARFSGSLLGGKAALTISGAQPEDEADYYCALWYSNHWVFGCGTKLEIKEVQLLESGGGEVQPGGSLRLSCAASGFSFSINAMGWYRQAPGKRREFVAAIESGRNTVYAESVKGRFTISRDNAKNTVYLQMSSLRAEDTAVYYCGLLKGNRVVSPSVAYWGQGTLVTVKP
notes: also carries a 41BB sdAb
How did the Kd [2] turn out when B9 was run?
Its Kd is 0.115 nM.

And the Kd [3]?
The Kd was over 200 nM.
